Assay [1] concerns the target TauC3 (C-terminally truncated tau fragment ending at aspartate 421 of htau40) (human) (UniProt P10636). Nature of the assay: binding ELISA on coated TauC3, OD650; left table (HC variants); isotype control.
For assay [2] the target is unchanged. In words: binding ELISA on coated TauC3, OD650; right table (HM variants); isotype control. In general terms: ELISA stands for enzyme-linked immunosorbent assay.

Sequence of TauC3 (C-terminally truncated tau fragment ending at aspartate 421 of htau40) (human) (P10636 other isoform, or with tags, fused parts or gaps): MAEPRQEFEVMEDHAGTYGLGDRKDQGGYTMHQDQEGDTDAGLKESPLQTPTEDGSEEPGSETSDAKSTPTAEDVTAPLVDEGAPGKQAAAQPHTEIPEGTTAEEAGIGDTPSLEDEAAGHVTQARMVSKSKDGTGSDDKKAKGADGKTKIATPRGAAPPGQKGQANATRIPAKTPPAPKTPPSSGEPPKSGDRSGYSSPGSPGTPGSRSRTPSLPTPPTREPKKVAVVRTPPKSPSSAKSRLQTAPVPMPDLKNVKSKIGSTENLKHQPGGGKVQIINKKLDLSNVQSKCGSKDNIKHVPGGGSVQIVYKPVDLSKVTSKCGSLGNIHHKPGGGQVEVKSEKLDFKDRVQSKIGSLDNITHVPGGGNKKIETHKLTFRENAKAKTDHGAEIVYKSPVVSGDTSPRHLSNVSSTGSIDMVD

isotype control antibody: the EC50 in assay [1] and in assay [2] was 15.5 nM throughout.

The term EC50 denotes the concentration that produces a half-maximal response. High values mean weaker potency, low ones greater potency.
